From patent US10829799 (UNIVERSITY COURT OF THE UNIVERSITY OF DUNDEE, dated 2020)
Numbering of substitutions follows the chain as printed. Blank lines part the entries; values can stand above or below the binder they belong to.

Assays:
[1] = molecular target: T1, UBA7 (ISG15 E1; His-tagged human UBA7) (human, UniProt P41226 1-1012); assay: covalent activity-based labelling, SDS-PAGE (FIG. 3E)
T1 construct: not shown: N-terminal 6xHis tag of the pFastBacHTB vector
T1 sequence (looked up): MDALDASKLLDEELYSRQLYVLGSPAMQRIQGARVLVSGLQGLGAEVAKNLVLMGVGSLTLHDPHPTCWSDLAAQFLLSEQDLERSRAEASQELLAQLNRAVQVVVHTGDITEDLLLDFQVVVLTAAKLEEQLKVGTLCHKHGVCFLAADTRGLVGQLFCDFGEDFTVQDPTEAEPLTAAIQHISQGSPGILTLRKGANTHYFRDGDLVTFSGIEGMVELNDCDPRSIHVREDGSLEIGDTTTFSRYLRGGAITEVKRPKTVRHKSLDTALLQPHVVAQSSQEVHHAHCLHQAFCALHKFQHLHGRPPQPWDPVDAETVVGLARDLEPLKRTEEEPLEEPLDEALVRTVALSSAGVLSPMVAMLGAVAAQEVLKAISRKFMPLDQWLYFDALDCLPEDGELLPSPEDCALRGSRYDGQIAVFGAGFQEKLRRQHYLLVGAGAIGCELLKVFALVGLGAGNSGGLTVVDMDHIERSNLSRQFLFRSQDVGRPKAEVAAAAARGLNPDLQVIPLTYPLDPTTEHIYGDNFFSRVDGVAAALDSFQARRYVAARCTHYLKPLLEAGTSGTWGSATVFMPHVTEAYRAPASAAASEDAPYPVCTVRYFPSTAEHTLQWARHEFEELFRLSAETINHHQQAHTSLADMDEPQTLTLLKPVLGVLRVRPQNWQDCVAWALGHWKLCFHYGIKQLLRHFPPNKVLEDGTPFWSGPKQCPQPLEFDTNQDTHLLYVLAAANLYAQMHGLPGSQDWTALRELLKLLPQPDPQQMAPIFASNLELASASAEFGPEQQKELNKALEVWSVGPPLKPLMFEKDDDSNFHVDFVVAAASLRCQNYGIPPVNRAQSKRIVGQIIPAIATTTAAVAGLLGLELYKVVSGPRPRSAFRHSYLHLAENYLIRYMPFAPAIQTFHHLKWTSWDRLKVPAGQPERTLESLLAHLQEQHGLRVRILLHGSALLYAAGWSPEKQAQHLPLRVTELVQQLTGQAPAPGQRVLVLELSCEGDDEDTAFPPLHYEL
Description: (§1) E2 probes (14 μM) were mixed with E1 enzyme (3.5 μM) and diluted 10× reaction buffer (500 mM Na_2HPO_4 pH 8) or 10×Ub-ATP buffer (500 mM Na_2HPO_4 pH 8, 20 μM ubiquitin, 20 mM ATP) to a final volume of 15-50 μL. Reactions were incubated at 30° C. and 15 μL aliquots were taken at 1 and 5 h time points which were quenched with 5 μL of reducing SDS-gel loading buffer (NuPAGE LDS loading buffer (4×), 715 mM 2-mercaptoethanol). The quenched reaction solutions were boiled for 5 minute at 100° C. and then 4 μL was analysed by SDS-PAGE (NuPAGE Bis-Tris, 4-12%).

[2] = molecular target: T2, human Ub E1 activating enzyme UBA1 (recombinant, wild type) (human, UniProt P22314 1-1058); assay: covalent activity-based labelling, UBA1 3.5 uM with 4 eq. of probe, 30 C, reducing SDS-PAGE
T2 construct: Catalytic cysteine C632
T2 sequence (looked up): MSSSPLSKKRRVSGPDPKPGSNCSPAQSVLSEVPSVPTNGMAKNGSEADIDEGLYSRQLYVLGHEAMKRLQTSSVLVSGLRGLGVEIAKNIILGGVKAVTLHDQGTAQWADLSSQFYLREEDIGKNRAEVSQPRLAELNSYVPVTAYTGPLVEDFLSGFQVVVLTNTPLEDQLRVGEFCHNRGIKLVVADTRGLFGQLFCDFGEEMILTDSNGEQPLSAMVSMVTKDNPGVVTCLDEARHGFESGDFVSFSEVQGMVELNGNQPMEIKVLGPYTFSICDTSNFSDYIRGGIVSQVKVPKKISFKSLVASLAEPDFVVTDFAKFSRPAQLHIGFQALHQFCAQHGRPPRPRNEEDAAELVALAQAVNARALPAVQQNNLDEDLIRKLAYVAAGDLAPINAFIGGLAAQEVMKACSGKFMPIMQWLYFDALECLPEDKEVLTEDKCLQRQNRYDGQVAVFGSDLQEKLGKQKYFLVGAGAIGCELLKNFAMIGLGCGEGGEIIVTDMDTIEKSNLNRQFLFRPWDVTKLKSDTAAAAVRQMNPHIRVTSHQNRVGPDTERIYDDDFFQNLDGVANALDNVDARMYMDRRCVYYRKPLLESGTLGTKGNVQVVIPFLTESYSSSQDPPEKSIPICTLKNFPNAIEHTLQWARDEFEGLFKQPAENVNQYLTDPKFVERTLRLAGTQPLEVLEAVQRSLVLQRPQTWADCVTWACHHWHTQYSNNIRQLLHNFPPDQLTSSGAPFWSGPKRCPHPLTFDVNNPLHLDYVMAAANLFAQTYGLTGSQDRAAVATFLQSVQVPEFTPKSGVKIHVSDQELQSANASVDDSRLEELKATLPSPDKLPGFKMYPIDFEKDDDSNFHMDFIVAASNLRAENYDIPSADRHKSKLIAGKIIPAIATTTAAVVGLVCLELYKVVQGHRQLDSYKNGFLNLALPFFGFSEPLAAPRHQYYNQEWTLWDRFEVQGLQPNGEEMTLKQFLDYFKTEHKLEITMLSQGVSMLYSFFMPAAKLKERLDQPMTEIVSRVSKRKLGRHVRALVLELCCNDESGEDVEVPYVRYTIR
Description: as §1

[3] = molecular target: T3, endogenous UBA1 in HEK293 protein extract (human, UniProt P22314 2-1058, limits assumed); assay: probe (25 uM) in HEK293 extract (125 ug), 3 h at 30 C, western blot
T3 construct: In a cell lysate, identified by anti-UBA1 blot and molecular weight
T3 sequence (looked up): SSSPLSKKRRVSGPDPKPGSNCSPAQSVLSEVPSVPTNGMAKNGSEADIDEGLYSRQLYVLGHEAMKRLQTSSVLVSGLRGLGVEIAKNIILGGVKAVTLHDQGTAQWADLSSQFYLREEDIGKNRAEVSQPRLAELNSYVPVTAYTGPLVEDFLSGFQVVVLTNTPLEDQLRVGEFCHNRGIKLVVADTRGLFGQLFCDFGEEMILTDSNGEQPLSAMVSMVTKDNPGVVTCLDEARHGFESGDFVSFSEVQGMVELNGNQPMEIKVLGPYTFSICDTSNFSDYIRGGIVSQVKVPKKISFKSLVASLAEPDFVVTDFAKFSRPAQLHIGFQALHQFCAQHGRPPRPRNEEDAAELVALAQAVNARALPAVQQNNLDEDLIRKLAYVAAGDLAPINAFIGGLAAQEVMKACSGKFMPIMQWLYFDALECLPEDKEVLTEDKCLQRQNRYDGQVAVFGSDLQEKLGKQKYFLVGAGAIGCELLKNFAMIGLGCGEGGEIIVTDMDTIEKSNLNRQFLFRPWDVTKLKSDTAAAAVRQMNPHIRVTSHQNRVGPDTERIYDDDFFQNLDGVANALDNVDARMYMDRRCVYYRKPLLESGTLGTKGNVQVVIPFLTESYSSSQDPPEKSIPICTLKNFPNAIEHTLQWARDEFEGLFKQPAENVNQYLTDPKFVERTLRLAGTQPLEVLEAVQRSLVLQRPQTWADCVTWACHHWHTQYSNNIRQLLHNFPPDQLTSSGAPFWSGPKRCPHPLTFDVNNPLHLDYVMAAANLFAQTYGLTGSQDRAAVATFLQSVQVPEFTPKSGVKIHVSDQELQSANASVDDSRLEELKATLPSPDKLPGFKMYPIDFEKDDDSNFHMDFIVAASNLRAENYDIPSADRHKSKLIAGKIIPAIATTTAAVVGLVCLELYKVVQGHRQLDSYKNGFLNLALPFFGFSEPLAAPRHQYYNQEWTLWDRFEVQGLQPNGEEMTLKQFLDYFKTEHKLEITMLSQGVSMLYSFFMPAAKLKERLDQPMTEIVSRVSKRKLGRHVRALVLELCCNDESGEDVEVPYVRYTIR
Description: Labelling was quenched by the addition of 1 part 4×LDS loading buffer (Life Technologies) supplemented with 715 mM 2-mercaptoethanol (BME) to 3 parts probe-treated protein extract. Proteins were resolved by SDS-PAGE (10%) and transferred to nitrocellulose membrane (20 V for 40-60 min) by semi-dry transfer using a Novex Semi-dry device (Life Technologies). Membranes were blocked by incubation with 5% milk powder in phosphate buffered saline+0.1% Tween 20 (PBST) for 1 h. His-tagged species were probed with 1:10000 anti-His primary antibody (Clontech) in PBST+5% milk powder for 30 min at room temperature. Detection was carried out by incubation with 1:2500 anti-mouse-HRP conjugated antibody (Cell Signalling Technologies) in PBST+5% milk powder for 1 h at room temperature. ECL Prime substrate (GE Life Sciences) was used for visualization in accordance with the manufacturers protocol. Probing for UBA1 was carried out with anti-UBA1 primary antibody (Sigma E3152) and incubated for 1 h at room temperature. Detection was carried out by incubation with 1:15000 anti-mouse-HRP conjugated antibody (Cell Signalling Technologies) in PBST+5% milk powder for 1 h at room temperature.
We next tested whether E2 probes could label endogenous proteins in a complex proteome. We prepared additional thioacrylonitrile and thiomethyl acrylate probes built on UBE2D1, UBE2D2, UBE2D3 and UBE2H. […] UBE2H was chosen as it only has a single catalytic cysteine. Human embryonic kidney cell (HEK293) extracts (125 μg) were incubated with empirically determined probe concentrations (5-25 μM).

[4] = molecular target: T2, human Ub E1 activating enzyme UBA1 …; assay: covalent activity-based labelling of UBA1, reducing SDS-PAGE
Description: as §1

[5] = molecular target: T2, human Ub E1 activating enzyme UBA1 …; assay: covalent activity-based labelling, SDS-PAGE (FIG. 3B)
Description: as §1

B1: UBE2L6*-=CN (enzyme)
chain: MGSSHHHHHHSSGLEVLFQGPGSMMASMRVVKELEDLQKKPPPYLRNLSSDDANVLVWHALLLPDQPPYHLKAFNLRISFPPEYPFKPPMIKFTTKIYHPNVDENGQICLPIISSENWKPSTKTSQVLEALNVLVNRPNIREPLRMDLADLLTQNPELFRKNAEEFTLRFGVDRPS
modifications: catalytic cysteine labelled with TDMA 1: thioacrylonitrile warhead
- binding result [1]: binds

B2: UBE2L6**-=CN (enzyme)
chain: B1 chain with S114A
modifications: catalytic cysteine labelled with TDMA 1: thioacrylonitrile warhead
- binding result [1]: binds

B3: UBE2N-=CN (His-tagged UBE2N labelled with (E)-3-tosylacrylonitrile 1; thioacrylonitrile probe) (enzyme)
chain: MGSSHHHHHHSSGLEVLFQGPGSAGLPRRIIKETQRLLAEPVPGIKAEPDESNARYFHVVIAGPQDSPFEGGTFKLELFLPEEYPMAAPKVRFMTKIYHPNVDKLGRICLDILKDKWSPALQIRTVLLSIQALLSAPNPDDPLANDVAEQWKTNEAQAIETARAWTRLYAMNNI
modifications: cysteine labelled with TDMA 1: thioacrylonitrile (activated vinylsulfide) warhead
notes: E2-based activity-based probe; forms a covalent bisthioether with the catalytic cysteine of the E1; also called Ubc13-=CN
- binding result [2]: binds
- binding result [3]: binds

More lines, now with the values ahead:

- binding result [4]: binds
- binding result [3]: binds
B4: UBE2N-VME (His-tagged UBE2N labelled with (E)-methyl 3-tosylacrylate 2; thiomethyl acrylate probe) (enzyme)
chain: B3 chain
modifications: cysteine labelled with TDMA 2: thiomethyl acrylate warhead
notes: also called Ubc13-VME

- binding result [5]: binds
B5: UBE2L3**-=CN (enzyme)
chain: MGSSHHHHHHSSGLEVLFQGPGSMAASRRLMKELEEIRKSGMKNFRNIQVDEANLLTWQGLIVPDNPPYDKGAFRIEINFPAEYPFKPPKITFKTKIYHPNIDEKGQVCLPVIAAENWKPATKTDQVIQSLIALVNDPQPEHPLRADLAEEYSKDRKKFSKNAEEFTKKYGEKRPVD
modifications: catalytic cysteine labelled with TDMA 1: thioacrylonitrile warhead
notes: also called UBE2L3** thioacrylonitrile probe

- binding result [3]: binds
B6: UBE2H thioacrylonitrile probe (enzyme)
chain: MGSSHHHHHHSSGLEVLFQGPGSMSSPSPGKRRMDTDVVKLIESKHEVTILGGLNEFVVKFYGPQGTPYEGGVWKVRVDLPDKYPFKSPSIGFMNKIFHPNIDEASGTVCLDVINQTWTALYDLTNIFESFLPQLLAYPNPIDPLNGDAAAMYLHRPEEYKQKIKEYIQKYATEEALKEQEEGTGDSSSESSMSDFSEDEAQDMEL
modifications: single catalytic cysteine labelled with TDMA 1 (thioacrylonitrile)
notes: also called UBE2H-=CN

- binding result [3]: binds
B7: UBE2H thiomethyl acrylate probe (enzyme)
chain: B6 chain
modifications: single catalytic cysteine labelled with TDMA 2 (thiomethyl acrylate)
notes: also called UBE2H-VME
